Assay [1] concerns the target T1, recombinant biotinylated CD71 extracellular domain (Sino Biologics) with an N-terminal 6His tag (human, UniProt P02786 89-760, biotinylated (site not stated)).
T1 construct: extracellular domain; also called hCD71; huCD71 ECD
The assay is described as follows: primary solution ELISA screen, signal on hCD71 over HSA.

For assay [2], the target named is T1, recombinant biotinylated CD71 …. The assay is described as follows: primary solution ELISA screen. In general terms: In an ELISA, binding on a coated surface is turned into a signal by an enzyme label.

T1 sequence (P02786 other isoform, or with tags, fused parts or gaps): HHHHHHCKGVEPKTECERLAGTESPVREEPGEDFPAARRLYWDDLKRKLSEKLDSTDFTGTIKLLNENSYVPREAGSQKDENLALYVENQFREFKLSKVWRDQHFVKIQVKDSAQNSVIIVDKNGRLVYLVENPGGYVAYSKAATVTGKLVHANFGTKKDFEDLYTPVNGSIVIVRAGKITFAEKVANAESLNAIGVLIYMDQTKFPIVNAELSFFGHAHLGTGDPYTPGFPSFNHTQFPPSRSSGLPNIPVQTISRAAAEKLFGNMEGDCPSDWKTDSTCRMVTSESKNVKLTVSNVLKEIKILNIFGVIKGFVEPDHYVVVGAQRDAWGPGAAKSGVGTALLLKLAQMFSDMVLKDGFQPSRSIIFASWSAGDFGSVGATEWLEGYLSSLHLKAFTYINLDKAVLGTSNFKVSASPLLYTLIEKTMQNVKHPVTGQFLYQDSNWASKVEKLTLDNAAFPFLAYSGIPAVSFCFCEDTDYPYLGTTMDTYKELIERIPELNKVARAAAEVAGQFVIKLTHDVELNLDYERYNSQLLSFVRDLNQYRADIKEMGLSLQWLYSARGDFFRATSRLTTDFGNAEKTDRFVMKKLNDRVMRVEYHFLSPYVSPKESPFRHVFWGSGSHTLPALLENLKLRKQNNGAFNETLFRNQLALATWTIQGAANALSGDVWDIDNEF

B1: SEQ ID NO 19 (designed binder, not shown: small tags and cut ends)
chain: MLPAPKNLVVSRVTEDSARLSWTAPDAAFDSFAITYTEAALCGEAIVLTVPGSERSYDLTGLKPGTEYPVPINGVKGGGTSGPLSAIFTT
notes: FN3 domain, hit of the apical domain panning
Consider B1, for which the “hCD71:HSA” value in assay [1] was 53. The RLU in assay [2] came out at 956000 RLU.

B2: SEQ ID NO 13 (designed binder, not shown: small tags and cut ends)
chain: MLPAPKNLVVSRVTEDSARLSWTAPDAAFDSFLIAYPEDGFRGEAIVLTVPGSERSYDLTGLKPGTEYPVPILGVKGGGGSGPLSAIFTT
notes: as for B1
Turning to B2, in assay [1], the “hCD71:HSA” value was found to be 70. Besides, the RLU in assay [2] came out at 1.73e+06 RLU.

B3: SEQ ID NO 43 (designed binder, not shown: small tags and cut ends)
chain: MLPAPKNLVVSRVTEDSARLSWTAPDAAFDSFMIVYYEYTRFGEAIVLTVPGSERSYDLTGLKPGTEYTVPIDGVKGGGRSSPLSAIFTT
notes: as for B1
Consider B3, for which the “hCD71:HSA” value in assay [1] turned out to be 36. The RLU in assay [2] was determined as 772000 RLU.

B4: SEQ ID NO 17 (designed binder, not shown: small tags and cut ends)
chain: MLPAPKNLVVSRVTEDSARLSWTAPDAAFDSFPILYTECVYRGEAIVLTVPGSERSYDLTGLKPGTEYHVPITGVKGGGGSWPLSAIFTT
notes: as for B1
For the molecule B4, in assay [1], the “hCD71:HSA” value is 61. Also, in assay [2], the RLU came to 221000 RLU.

B5: SEQ ID NO 34 (designed binder, not shown: small tags and cut ends)
chain: MLPAPKNLVVSRVTEDSARLSWTAPDAAFDSFYITYVELNLAGEAIVLTVPGSERSYDLTGLKPGTEYPVPILGVKGGSLSQPLSAIFTT
notes: as for B1
With B5, in assay [1], the “hCD71:HSA” value was determined as 195. Besides, the RLU in assay [2] amounted to 1.58e+06 RLU.

B6: SEQ ID NO 56 (designed binder, not shown: small tags and cut ends)
chain: MLPAPKNLVVSRVTEDSARLSWTAPDAAFDSFSIGYVELVLLGEAIVLTVPGSERSYDLTGLKPGTEYDVLIPGVKGGSLSRPLSAIFTT
notes: as for B1
On to B6, for which the “hCD71:HSA” value in assay [1] turned out to be 99. In addition, the RLU in assay [2] is 1.92e+06 RLU.

B7: SEQ ID NO 18 (designed binder, not shown: small tags and cut ends)
chain: MLPAPKNLVVSRVTEDSARLSWTAPDAAFDSFNIMYHEIIYVGEAIVLTVPGSERSYDLTGLKPGTEYPVPIEGVKGGGTSGPLSAIFTT
notes: as for B1
For the molecule B7, the “hCD71:HSA” value in assay [1] turned out to be 79. Further, in assay [2], the RLU was 828000 RLU.

B8: SEQ ID NO 30 (designed binder, not shown: small tags and cut ends)
chain: MLPAPKNLVVSRVTEDSARLSWTAPDAAFDSFIIHYVEQQLIGEAIVLTVPGSERSYDLTGLKPGTEYPVPITGVKGGACSWPLSAIFTT
notes: as for B1
B8: in assay [1], the “hCD71:HSA” value turned out to be 46. Further, the RLU in assay [2] stood at 205000 RLU.

B9: SEQ ID NO 33 (designed binder, not shown: small tags and cut ends)
chain: MLPAPKNLVVSRVTEDSARLSWTAPDAAFDSFGIAYVESYWYGEAIVLTVPGSERSYDLTGLKPGTEYNVPIYGVKGGDGSGPLSAIFTT
notes: as for B1
Regarding B9, the “hCD71:HSA” value in assay [1] amounted to 132. In addition, the RLU in assay [2] is 271000 RLU.

B10: SEQ ID NO 40 (designed binder, not shown: small tags and cut ends)
chain: MLPAPKNLVVSRVTEDSARLSWTAPDAAFDSFTIDYWENRCPGEAIVLTVPGSERSYDLTGLKPGTEYCVWISGVKGGYSSWPLSAIFTT
notes: as for B1
Turning to B10, the “hCD71:HSA” value in assay [1] was found to be 16. In addition, the RLU in assay [2] is 223000 RLU.

B11: SEQ ID NO 39 (designed binder, not shown: small tags and cut ends)
chain: MLPAPKNLVVSRVTEDSARLSWTAPDAAFDSFPIPYTEPPDPGEAIVLTVPGSERSYDLTGLKPGTEYLVTILGVKGGSMSVPLSAIFTT
notes: as for B1
Consider B11, for which the “hCD71:HSA” value in assay [1] amounted to 29. Further, the RLU in assay [2] worked out at 1.48e+06 RLU.

B12: SEQ ID NO 12 (designed binder, not shown: small tags and cut ends)
chain: MLPAPKNLVVSRVTEDSARLSWTAPDAAFDSFFIPYAEPSPTGEAIVLTVPGSERSYDLTGLKPGTEYSVLIHGVKGGHLSDPLSAISTT
notes: as for B1
For the molecule B12, in assay [1], the “hCD71:HSA” value amounted to 25. Besides, in assay [2], the RLU is 1.24e+06 RLU.

B13: SEQ ID NO 68 (designed binder, not shown: small tags and cut ends)
chain: MLPAPKNLVVSRVTEDSARLSWTAPDAAFDSFIIPYAEVRPDGEAIVLTVPGSERSYDLTGLKPGTEYSVLIHGVKGGHLSDPLSAISTT
notes: as for B1
As to B13, the “hCD71:HSA” value in assay [1] was 14. Also, the RLU in assay [2] was found to be 521000 RLU.

B14: SEQ ID NO 82 (designed binder, not shown: small tags and cut ends)
chain: MLPAPKNLVVSRVTEDSARLSWTAPDAAFDSFLIPYAETSPSGEAIVLTVPGSERSYDLTGLKPGTEYSVLIHGVKGGDYSSPLSAIFTT
notes: as for B1
For the molecule B14, in assay [1], the “hCD71:HSA” value is 105. In assay [2], the RLU amounted to 1.56e+06 RLU.

B15: SEQ ID NO 57 (designed binder, not shown: small tags and cut ends)
chain: MLPAPKNLVVSRVTEDSARLSWTAPDAAFDSFAIPYAELSRNGEAIVLTVPGSERSYDLTGLKPGTEYTVLIHGVKGGCLSDPLSAIFTT
notes: as for B1
As for B15, the “hCD71:HSA” value in assay [1] turned out to be 29. Besides, in assay [2], the RLU was 1.12e+06 RLU.

B16: SEQ ID NO 42 (designed binder, not shown: small tags and cut ends)
chain: MLPAPKNLVVSRVTEDSARLSWTAPDAAFDSFLIPYAETSPSGEAIVLTVPGSERSYDLTGLKPGTEYSVLIHGVKGGDYSEPLSAIFTT
notes: as for B1
Turning to B16, in assay [1], the “hCD71:HSA” value is 586. Further, in assay [2], the RLU was found to be 586000 RLU.

B17: SEQ ID NO 99 (designed binder, not shown: small tags and cut ends)
chain: MLPAPKNLVVSRVTEDSARLSWTAPDAAFDSFFIPYAEPSPTGEAIVLTVPGSERSYDLTGLKPGTEYSVLIHGVKGGHLSDPLSVIFTT
notes: as for B1
As for B17, the “hCD71:HSA” value in assay [1] turned out to be 45. The RLU in assay [2] is 440000 RLU.

B18: SEQ ID NO 83 (designed binder, not shown: small tags and cut ends)
chain: MLPAPKNLVVSRVTEDSARLSWTAPDAAFDSFPIAYAEPRPDGEAIVLTVPGSERSYDLTGLKPGTEYSVLIHGVKGGLLSSPLSAISTT
notes: as for B1
With B18, in assay [1], the “hCD71:HSA” value turned out to be 29. Further, the RLU in assay [2] worked out at 3.26e+06 RLU.

B19: SEQ ID NO 49 (designed binder, not shown: small tags and cut ends)
chain: MLPAPKNLVVSRVTEDSARLSWTAPDAAFDSFPIAYAEPRPDGEAIVLTVPGSERSYDLTGLKPGTEYSVLIHGVKGGDWSLPLSAIFTT
notes: as for B1
On to B19, for which the “hCD71:HSA” value in assay [1] amounted to 70. The RLU in assay [2] was 969000 RLU.

B20: SEQ ID NO 64 (designed binder, not shown: small tags and cut ends)
chain: MLPAPKNLVVSRVTEDSARLSWTAPDAAFDSFYIVYAEPIPNGEAIVLTVPGSERSYDLTGLKPGTEYSVLIHGVKGGRNSDPLSAIFTT
notes: as for B1
On to B20, for which the “hCD71:HSA” value in assay [1] was 218. For the same molecule, the RLU in assay [2] came to 1.31e+06 RLU.

B21: SEQ ID NO 46 (designed binder, not shown: small tags and cut ends)
chain: MLPAPKNLVVSRVTEDSARLSWTAPDAAFDSFIIPYAEVRPDGEAIVLTVPGSERSYDLTGLKPGTEYSVLIHGVKGGKLSLPLSAIFTT
notes: as for B1
Turning to B21, the “hCD71:HSA” value in assay [1] stood at 127. The RLU in assay [2] turned out to be 1.04e+06 RLU.

B22: SEQ ID NO 44 (designed binder, not shown: small tags and cut ends)
chain: MLPAPKNLVVSRVTEDSARLSWTAPDAAFDSFFIPYAEPSPTGEAIVLTVPGSERSYDLTGLKPGTEYSVLIHGVKGGHLSDPLSAIVTT
notes: as for B1
With B22, the “hCD71:HSA” value in assay [1] worked out at 13. For the same molecule, in assay [2], the RLU amounted to 715000 RLU.

B23: SEQ ID NO 65 (designed binder, not shown: small tags and cut ends)
chain: MLPAPKNLVVSRVTKDSARLSWTAPDAAFDSFPIAYAEPRPDGEAIVLTVPGSERSYDLTGLKPGTEYSVLIHGVKGGLLSSPLSAIFTT
notes: as for B1
B23: the “hCD71:HSA” value in assay [1] was 60. In assay [2], the RLU was found to be 959000 RLU.

B24: SEQ ID NO 77 (designed binder, not shown: small tags and cut ends)
chain: MLPAPKNLVVSRVTEDSARLSWTAPDAAFDSFPIAYAEPRPDGEAIVLTVPGSERSYDLTGLKPGTEYSVLIHGVKGGLLSSPLSAIFTT
notes: as for B1
B24: the “hCD71:HSA” value in assay [1] came to 71. For the same molecule, in assay [2], the RLU was 739000 RLU.

These data come from patent publication US20220332795A1 (ARO BIOTHERAPEUTICS, published 2022).
